How the values were obtained:
Assay type in all cases: cell-based, human
[1] = test system: Smad3 phosphorylation; assay: phospho-Smad3 to total Smad3 ratio by western blot; details: electroporation of TGFβ dosed HFFs on tissue culture plastic
[2] = test system: Smad2/3; assay: V5-Smad2/3 PLA with recombinant LEMD3 / CTF
Procedure: In vitro PLA: Protein-protein PLA was per-formed with antibody pairs listed in Table 4 as described in (42) with the following modifications: cells were plated on FN-coated glass or hydrogels (Matrigen, Brea, Calif.). All primary antibody in-cubations were performed for 16-24 hours at 4 C and cells were counter-stained with 1:40 phalloidin-488 or phalloidin-546 in 1×PBS for 30 minutes at room temperature and/or further processed for IF imaging using the procedure recommended in Sigma's PLA Resource Center. For all recombinant LEMD3 and C-terminal fragment experiments, HFFs were electroporated as above and allowed to culture for 24 hours on 10 μg/mL fibronectin coated glass or hydrogels before fixation. For LEMD3-phospho-Smad2/3, LEMD3-Smad2/3+TGFβ and for Smad2/3-Smad4 PLA assays: cells were treated 90 minutes before fixation with 50 μg/mL for LEMD3- and CTF-Smad2/3 assays, 100 μg/mL TGFβ for LEMD3-phospho-Smad2/3 experiments and 500 μg/mL TGFβ for Smad2/3-Smad4 experiments. For FLAG post-staining of PLA processed tissues, cells were blocked with unlabelled AffiniPure donkey anti-rabbit antibodies (Jackson ImmunoResearch, West Grove, Pa.) at a 1:10 dilution in 1×PBS-T at room temperature for 1 hour before further IF processing with 1:1000 rabbit anti-FLAG (#F7425, Sigma-Aldrich, Darmstadt, Germany) for 1 hour in PBS-T at room temperature. Following three washes with PBS-T for 5 minutes, each sample was stained with 1:500 goat anti-rabbit 546 in PBS-T for 1 hour at room temperature, washed again and then counter-stained as above. For V5 post-staining of PLA processed samples, cells were incubated with 1:200 647 labelled anti-V5 antibody (R&D Systems, Minneapolis, Minn.) diluted in PBS-T at room tem-perature for 1 hour before washing three times in PBS-T for 5 minutes each and then counter-stained as above. Imaging and analysis were performed as described for high-resolution ex vivo PLA signals except that no tissue autofluorescence signal was measured or needed to be subtracted and, when appro-priate, other IF signal (e.g. FLAG) were measured in parallel. For cells on Matrigen HTS plates (FIGS. 2c & 2d), the confluence of cells prevented identifying individual cell boundaries. Instead the PLA signal was quantified as the PLA volume divided by the nuclear intensity for each image. Each data point represents at least 3 unique surfaces with at least 12 cells measured per surface. For Smad2/3-Smad4 experiments, only two independent hydrogels were analyzed for the “CTF 500 μg/mL” and “Neon 500 μg/mL” groups due to loss of hydrogels during processing. Each bar in FIG. 5D represents the mean with standard error of the mean for all the cells analyzed from that condition.

[3] = test system: Smad2/3-Smad4 complexes; assay: Smad2/3-Smad4 PLA; details: over-expression, 500 μg/mL TGFβ, 1 kPa hydrogels, p=0.0081
Procedure: In vitro PLA: Protein-protein PLA was per-formed with antibody pairs listed in Table 4 as described in (42) with the following modifications: cells were plated on FN-coated glass or hydrogels (Matrigen, Brea, Calif.). All primary antibody in-cubations were performed for 16-24 hours at 4 C and cells were counter-stained with 1:40 phalloidin-488 or phalloidin-546 in 1×PBS for 30 minutes at room temperature and/or further processed for IF imaging using the procedure recommended in Sigma's PLA Resource Center. […] Imaging and analysis were performed as described for high-resolution ex vivo PLA signals except that no tissue autofluorescence signal was measured or needed to be subtracted and, when appro-priate, other IF signal (e.g. FLAG) were measured in parallel. […] Instead the PLA signal was quantified as the PLA volume divided by the nuclear intensity for each image. Each data point represents at least 3 unique surfaces with at least 12 cells measured per surface. For Smad2/3-Smad4 experiments, only two independent hydrogels were analyzed for the “CTF 500 μg/mL” and “Neon 500 μg/mL” groups due to loss of hydrogels during processing. Each bar in FIG. 5D represents the mean with standard error of the mean for all the cells analyzed from that condition.

[4] = test system: PPM1α; assay: PPM1α PLA; details: glass
Procedure: In vitro PLA: Protein-protein PLA was per-formed with antibody pairs listed in Table 4 as described in (42) with the following modifications: cells were plated on FN-coated glass or hydrogels (Matrigen, Brea, Calif.). All primary antibody in-cubations were performed for 16-24 hours at 4 C and cells were counter-stained with 1:40 phalloidin-488 or phalloidin-546 in 1×PBS for 30 minutes at room temperature and/or further processed for IF imaging using the procedure recommended in Sigma's PLA Resource Center. For all recombinant LEMD3 and C-terminal fragment experiments, HFFs were electroporated as above and allowed to culture for 24 hours on 10 μg/mL fibronectin coated glass or hydrogels before fixation. For LEMD3-phospho-Smad2/3, LEMD3-Smad2/3+TGFβ and for Smad2/3-Smad4 PLA assays: cells were treated 90 minutes before fixation with 50 μg/mL for LEMD3- and CTF-Smad2/3 assays, 100 μg/mL TGFβ for LEMD3-phospho-Smad2/3 experiments and 500 μg/mL TGFβ for Smad2/3-Smad4 experiments. […] Imaging and analysis were performed as described for high-resolution ex vivo PLA signals except that no tissue autofluorescence signal was measured or needed to be subtracted and, when appro-priate, other IF signal (e.g. FLAG) were measured in parallel. […] Instead the PLA signal was quantified as the PLA volume divided by the nuclear intensity for each image. Each data point represents at least 3 unique surfaces with at least 12 cells measured per surface. For Smad2/3-Smad4 experiments, only two independent hydrogels were analyzed for the “CTF 500 μg/mL” and “Neon 500 μg/mL” groups due to loss of hydrogels during processing. Each bar in FIG. 5D represents the mean with standard error of the mean for all the cells analyzed from that condition.

B1: CTF: consensus C-terminal fragment of LEMD3 (SEQ ID NO: 25), expressed from pFLAG-LEMD3p.Δ21-669-V5 (protein, listed as Homo sapiens)
chain: MAAAAASAPQQLSDEELFSQRDSLIQPHDRKKMKKVWDRAVDFLAANESRVRTETRRIGGADFLVWRWIQPSASCDKILVIPSKVWQGQAFHLDRRNSPPNSLTPCLKIRNMFDPVMEIGDQWHLAIQEAILEKCSDNDGIVHIAVDKNSREGCVYVKCLSPEYAGKAFKALHGSWFDGKLVTVKYLRLDRYHHRFPQALTSNTPLKPSNKHMNSMSHLRLRTGLTNSQGSS
modifications: FLAG and V5 tags
[1]
  pSmad3/Smad3 ratio: decreased the pSmad3/Smad3 ratio
[2]; 1 kPa p<0.0001, 25 kPa p=0.0227
  overall CTF-Smad2/3 interactions versus electroporation control fibroblasts: significantly more overall CTF-Smad2/3 interactions
[2]; 1 kPa relative to 25 kPa hydrogels, p<0.0001
  CTF-Smad2/3 interactions, cytoplasm: significantly more Smad2/3 interactions
[2]; 1 kPa relative to 25 kPa hydrogels, p<0.0001, FIG. 5B
  CTF-Smad2/3 interactions overall: significantly more Smad2/3 interactions
[2]; 1 kPa relative to 25 kPa hydrogels, p=0.0082
  CTF-Smad2/3 interactions, nucleus: significantly more Smad2/3 interactions
[2]; depending on stiffness, FIG. 5B
  fraction of CTF-Smad2/3 interactions in the nucleus: 40-55%
[3]
  TGFβ-driven increase in Smad2/3-Smad4 complexes: significantly abrogated
[4]; vs Neon Only control, p<0.0001
  PPM1α interactions, total: bound PPM1α
[4]; vs control, p=0.0081
  PPM1α interactions, cytoplasm: bound PPM1α significantly above background
[4]; vs control, p=0.2569
  PPM1α interactions, nucleus: only endogenous LEMD3 was found to significantly bind PPM1α in the nucleus

Reference: US11541101B1, “LEMD3 antagonizes TGF-beta-driven Smad2/3 transcription in a stiffness-dependent fashion in both the nucleus and cytosol” (University of Virginia Patent Foundation, priority 2018, dated 2023)
